According to the Human Domainome abundance scans (Beltran et al. 2025):

B1: Transcription elongation regulator 1-like protein, residues 448 to 504; numbered along this chain, Q5VWI1 (parent)
chain: LPLEERVTHFRDMLLERGVSAFSTWEKELHKIVFDPRYLLLNSEERKQIFEQFVKTR

Variants of: B1
Experiment: abundance fitness (aPCA) (normalised: wild type 0, dead -1); higher = more abundant; growth selection in yeast, the domain comes from the species named
Details: Homo sapiens

Abundance fitness: each site, then its substitutions
E26: S -0.658, G -0.643, V -0.914, K -1.04, W -0.84, Q -0.355, M -0.09, L -0.564, C 0.153, D -0.168, F -0.617, A -0.636, T -0.524, R -0.861, P -0.294
D35: E -0.667, G -0.757, R -0.436, S -0.944, W -0.861, V -0.836, A -1.02, P -0.722, T -0.892, H -0.354
V19: G -0.7, K -0.376, W -0.767, E -0.893, I -0.528, C -0.611, R -0.916, A -0.709, Q -0.625, S -0.805, L -0.998, T -0.674
P36: A -0.42, C -0.869
M13: E -0.582, I -0.623, P -0.257, F -0.765, V -0.327, S -0.743, W -0.08, C -0.804, K -0.555, T -0.759, L -0.415, R -0.7, A -0.896
H30: E -0.276, L -0.544, P 0.098, D -0.235, W -0.138, S -0.585, I -0.439, V -0.608, G -0.505, K -0.403, M -0.515, Y -0.337, R -0.295, T -0.492, N -0.547, C -0.569, A -0.714
F10: V -0.97, W -0.536, T -0.679
E28: L -0.446, M -1.04, D -0.673, Y -0.946, I -1.02, F -0.796, V -0.71, G -0.701, Q -0.641, S -0.659, A -0.822, R -0.576, C -0.542
V33: T -0.423, R 0.108, G -0.764, H 0.238, M -0.227, W -0.415, E -0.076, L -0.47, S 0.028, C -0.514, K 0.062, A -0.138, I 0.129, P -0.112
G18: W -0.746, C -0.714, E 0.071, A -0.588, T 0.098, Q -0.454, R -0.316, S -0.33, V -0.612, M -0.96, L -0.545, K 0.719
T24: H -0.361, V -0.59, C 0.197, R -0.701, I -0.692, A -0.561, G -0.662, L -0.559, S -0.237, Q -0.503, P -0.571
F22: M -0.431, Q 0.199, L -0.045, R -0.155, P -0.48, T 0.048, D 0.292, I -0.797, C 0.078, N 0.471, S 0.063, G 0.04, V -0.439, Y -0.031
K31: F -0.587, V -0.705, P -0.681, M -0.496, L -0.781, C -0.457, R -0.662, S -0.789
W25: G -0.898, Y 0.169, I -0.393, E -0.713, D -0.986, Q -0.751, M -0.154, N -0.557, V -0.668, S -0.55, L -0.795, A -0.589, R -0.531
L15: R 0.139, D -0.142, N -0.154, P -0.548, A -0.226, S 0.054, G -0.273, I -0.315, F -0.325, H -0.352
